In paper PMC8289115, “Liquid–liquid phase separation of full-length prion protein initiates conformational conversion in vitro” (The Journal of Biological Chemistry, 2021):

Molecular target: the molecule itself
Experiment: SDS-PAGE and Western blotting of aged gels collected by centrifugation

B1: full-length human recombinant prion protein (residues 23-231) (natural protein)
chain: not shown
notes: also called rPrP; hu-PrP; source: E. coli DH5α, purified
  binding result: binds
